The record followed here is the supplement of paper PMC7125110.

First the molecules themselves.
B1: glmS ribozyme (parent)
chain: AUAAAAGCGCCAGAACUACAGAAAUGUAGUUGACGAGGAGGAGGUUUAUCGAAUUUUCGGCGGAUGCCUCCAAA

Conditions in all cases: with glucosamine-6-phosphate
Variants of B1 are the subject of data set [1]. Put plainly: kcat; higher = faster cleavage; RNA array. In a few lines: (§1)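 The measurements used barcoded ribozyme variants on sequenced MiSeq chips, transcribed in situ by E. coli RNA polymerase and tracked at 37 °C with a hybridised Cy3 probe. Glucosamine-6-phosphate, 40 μM to 10 mM in HEPES/KCl/Mg(OAc)2 buffer, was flowed in while tiles were imaged over ~14 h. Baseline-normalised signals, also normalised to non-cleaving reference variants, gave per-tile medians that were fit to one- or two-exponential decays for kobs. kcat and KM resulted from weighted Michaelis–Menten fits across concentrations.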

In data set [2] the parent is B1. Put plainly: KM; higher = weaker cofactor use; RNA array. In a few lines:
as §1

Data set [3] covers variants of B1. Put plainly: self-cleavage kobs at 40 uM GlcN6P; higher = faster cleavage; RNA array. Summed up: as §1
In data set [4] the parent is B1. Put plainly: self-cleavage kobs at 160 uM GlcN6P; higher = faster cleavage; RNA array. Summed up: as §1
Variants of B1 are the subject of data set [5]. Put plainly: self-cleavage kobs at 640 uM GlcN6P; higher = faster cleavage; RNA array. Summed up: as §1
Data set [6] covers variants of B1. Put plainly: self-cleavage kobs at 2500 uM GlcN6P; higher = faster cleavage; RNA array. Summed up:
as §1

The variants in data set [7] derive from B1. Put plainly: self-cleavage kobs at 10000 uM GlcN6P; higher = faster cleavage; RNA array. Summed up: as §1

± gives the standard error. For some of these results: This sample holds only a part of the variants without activity.

Regarding G41A U45A, the catalytic constant (kcat) – broadly, the number of substrate molecules converted per active site and unit of time at saturation – in data set [1] was found to be 0.000317 ± 4.9e-05 s⁻¹. Moreover, the KM (in general, the concentration of substrate that gives half-maximal velocity) in data set [2] is 140 ± 59 µM. The “self-cleavage kobs at 40 uM GlcN6P” value in data set [3] is 9.19e-05 ± 1.9e-05 s⁻¹. Moreover, the “self-cleavage kobs at 160 uM GlcN6P” value in data set [4] was 0.000128 ± 3e-05 s⁻¹. In addition, the “self-cleavage kobs at 640 uM GlcN6P” value in data set [5] came out at 0.000296 ± 5.5e-05 s⁻¹. Also, the “self-cleavage kobs at 2500 uM GlcN6P” value in data set [6] was 0.000354 ± 8.1e-05 s⁻¹. Further, the “self-cleavage kobs at 10000 uM GlcN6P” value in data set [7] amounted to 0.000299 ± 5.4e-05 s⁻¹.

Consider U31G A53C, for which the kcat in data set [1] came out at 0.00293 ± 0.00056 s⁻¹. For the same variant, in data set [2], the KM was 2500 ± 770 µM. In addition, the “self-cleavage kobs at 40 uM GlcN6P” value in data set [3] is 3.19e-05 ± 1.2e-05 s⁻¹. Moreover, the “self-cleavage kobs at 160 uM GlcN6P” value in data set [4] was found to be 0.000223 ± 5.6e-05 s⁻¹. In addition, the “self-cleavage kobs at 640 uM GlcN6P” value in data set [5] is 0.000646 ± 0.00015 s⁻¹. The “self-cleavage kobs at 2500 uM GlcN6P” value in data set [6] worked out at 0.00165 ± 0.00028 s⁻¹. In addition, the “self-cleavage kobs at 10000 uM GlcN6P” value in data set [7] was 0.00219 ± 0.00037 s⁻¹.

For C68A C70G, the kcat in data set [1] is < 1e-05 s⁻¹. In data set [3], the “self-cleavage kobs at 40 uM GlcN6P” value is < 1e-05 s⁻¹. Further, in data set [7], the “self-cleavage kobs at 10000 uM GlcN6P” value is < 1e-05 s⁻¹.

For the variant A48C C68G, the kcat in data set [1] is < 1e-05 s⁻¹. Also, the “self-cleavage kobs at 40 uM GlcN6P” value in data set [3] was < 1e-05 s⁻¹. The “self-cleavage kobs at 10000 uM GlcN6P” value in data set [7] is < 1e-05 s⁻¹.

For the variant C34G G38A C58A C68G, the kcat in data set [1] was found to be 5.13e-05 ± 7.5e-06 s⁻¹. In addition, in data set [5], the “self-cleavage kobs at 640 uM GlcN6P” value came out at 5.22e-05 ± 1.6e-05 s⁻¹. Besides, in data set [6], the “self-cleavage kobs at 2500 uM GlcN6P” value turned out to be 4.79e-05 ± 1.7e-05 s⁻¹.

As to G32A C58A C68U, in data set [1], the catalytic constant (kcat) was found to be 0.000878 ± 0.00034 s⁻¹. Moreover, the “self-cleavage kobs at 640 uM GlcN6P” value in data set [5] is 8.56e-05 ± 1.4e-05 s⁻¹. The “self-cleavage kobs at 2500 uM GlcN6P” value in data set [6] is 0.000172 ± 7.4e-05 s⁻¹. The “self-cleavage kobs at 10000 uM GlcN6P” value in data set [7] amounted to 0.000572 ± 0.00012 s⁻¹.

In the case of A14G C68A, the catalytic constant (kcat) in data set [1] is 9.34e-05 ± 1.3e-05 s⁻¹. For the same variant, the KM in data set [2] worked out at 254 ± 120 µM. In addition, in data set [4], the “self-cleavage kobs at 160 uM GlcN6P” value amounted to 2.91e-05 ± 1.3e-05 s⁻¹. In addition, in data set [5], the “self-cleavage kobs at 640 uM GlcN6P” value is 7.66e-05 ± 1.6e-05 s⁻¹. In data set [6], the “self-cleavage kobs at 2500 uM GlcN6P” value was found to be 0.000105 ± 3.4e-05 s⁻¹. Also, the “self-cleavage kobs at 10000 uM GlcN6P” value in data set [7] was found to be 7.77e-05 ± 2.1e-05 s⁻¹.

As to A6U A52U, in data set [1], the catalytic constant (kcat) was < 1e-05 s⁻¹. For the same variant, the “self-cleavage kobs at 160 uM GlcN6P” value in data set [4] was < 1e-05 s⁻¹. In addition, the “self-cleavage kobs at 10000 uM GlcN6P” value in data set [7] was < 1e-05 s⁻¹.

With G51U G60C C70G, in data set [1], the kcat is 1.22e-05 ± 2.5e-06 s⁻¹. Further, the “self-cleavage kobs at 40 uM GlcN6P” value in data set [3] was < 1e-05 s⁻¹.

Consider G38C C68G, for which, in data set [1], the kcat was determined as 1.31e-05 ± 3.9e-06 s⁻¹.

Turning to A39U U55A, in data set [1], the kcat turned out to be 0.0539 ± 0.0098 s⁻¹. Besides, in data set [2], the Michaelis-Menten constant (KM) was 5710 ± 1200 µM. Besides, the “self-cleavage kobs at 40 uM GlcN6P” value in data set [3] came out at 0.000396 ± 9.4e-05 s⁻¹. Further, the “self-cleavage kobs at 160 uM GlcN6P” value in data set [4] is 0.00146 ± 0.00024 s⁻¹. For the same variant, the “self-cleavage kobs at 640 uM GlcN6P” value in data set [5] was determined as 0.00564 ± 0.001 s⁻¹. Moreover, in data set [6], the “self-cleavage kobs at 2500 uM GlcN6P” value is 0.0142 ± 0.0033 s⁻¹. In addition, the “self-cleavage kobs at 10000 uM GlcN6P” value in data set [7] is 0.0376 ± 0.0091 s⁻¹.

Consider A48G U56C, for which, in data set [1], the kcat stood at 5.09e-05 ± 1.7e-06 s⁻¹. The KM in data set [2] stood at 3700 ± 360 µM. Besides, the “self-cleavage kobs at 10000 uM GlcN6P” value in data set [7] was 3.71e-05 ± 1.1e-05 s⁻¹.

Take A39U A53U: in data set [1], the kcat stood at 0.0113 ± 0.0033 s⁻¹. Also, in data set [2], the Michaelis-Menten constant (KM) stood at 1260 ± 530 µM. Moreover, in data set [3], the “self-cleavage kobs at 40 uM GlcN6P” value stood at 0.000461 ± 5e-05 s⁻¹. For the same variant, the “self-cleavage kobs at 160 uM GlcN6P” value in data set [4] turned out to be 0.000985 ± 0.00016 s⁻¹. For the same variant, in data set [5], the “self-cleavage kobs at 640 uM GlcN6P” value was 0.00368 ± 0.00054 s⁻¹. The “self-cleavage kobs at 2500 uM GlcN6P” value in data set [6] was found to be 0.00619 ± 0.001 s⁻¹. Also, the “self-cleavage kobs at 10000 uM GlcN6P” value in data set [7] is 0.0126 ± 0.0017 s⁻¹.

As to U55A U69G, the kcat in data set [1] is 6.88e-05 ± 8.3e-06 s⁻¹. Also, the “self-cleavage kobs at 160 uM GlcN6P” value in data set [4] was found to be 8.26e-05 ± 1.6e-05 s⁻¹. Further, in data set [5], the “self-cleavage kobs at 640 uM GlcN6P” value was determined as 6.99e-05 ± 1.2e-05 s⁻¹. Further, the “self-cleavage kobs at 2500 uM GlcN6P” value in data set [6] was 7.05e-05 ± 8.6e-06 s⁻¹. Further, the “self-cleavage kobs at 10000 uM GlcN6P” value in data set [7] stood at 5.04e-05 ± 1.3e-05 s⁻¹.

U46G U54G: the catalytic constant (kcat) in data set [1] was found to be 0.0123 ± 0.0017 s⁻¹. Moreover, the Michaelis-Menten constant (KM) in data set [2] was 3110 ± 510 µM. In addition, the “self-cleavage kobs at 40 uM GlcN6P” value in data set [3] worked out at 0.000155 ± 2.6e-05 s⁻¹. The “self-cleavage kobs at 160 uM GlcN6P” value in data set [4] came out at 0.000596 ± 0.00017 s⁻¹. Further, the “self-cleavage kobs at 640 uM GlcN6P” value in data set [5] is 0.00224 ± 0.0004 s⁻¹. In data set [6], the “self-cleavage kobs at 2500 uM GlcN6P” value turned out to be 0.00479 ± 0.0013 s⁻¹. Besides, the “self-cleavage kobs at 10000 uM GlcN6P” value in data set [7] is 0.0102 ± 0.003 s⁻¹.

As to C16U C50A, the kcat in data set [1] turned out to be 2.89e-05 ± 7.6e-06 s⁻¹. Further, in data set [6], the “self-cleavage kobs at 2500 uM GlcN6P” value amounted to 4.91e-05 ± 1.8e-05 s⁻¹. The “self-cleavage kobs at 10000 uM GlcN6P” value in data set [7] stood at 2.32e-05 ± 1.1e-05 s⁻¹.

With G13A C68G, the kcat in data set [1] came to 1.81e-05 ± 5e-06 s⁻¹.

As to G7U A48U C50G U54G, in data set [1], the kcat was 3.22e-05 ± 1.3e-05 s⁻¹.
